Laboratory results published in the supplement of paper PMC10065799, “High-throughput profiling of sequence recognition by tyrosine kinases and SH2 domains using bacterial peptide display” (eLife, 2023).

Columns and labels:
AncSZ = assay: phosphorylation enrichment, bacterial display (enrichment ratio); higher = better substrate or ligand; peptides without Tyr show the background
EPHB1 = EPHB1 (UniProt P54762); assay: as above
EPHB2 = EPHB2 (UniProt P29323); assay: as above
FGFR1 = FGFR1 (UniProt P11362); assay: as above
FGFR3 = FGFR3 (UniProt P22607); assay: as above
Fer (mouse) = assay: as above
Fes = Fes (UniProt P07332); assay: as above
Fyn = Fyn (UniProt P06241); assay: as above
Hck = Hck (UniProt P08631); assay: as above
Jak2 = Jak2 (UniProt O60674); assay: as above
MERTK = MERTK (UniProt Q12866); assay: as above
c-Abl (mouse) = assay: as above
c-Src = assay: as above
Grb2 SH2 = Grb2 SH2 (UniProt P62993); assay: SH2 binding enrichment of the phosphorylated peptide, bacterial display (enrichment ratio); higher = better substrate or ligand; peptides without Tyr show the background
SHP2-C SH2 = assay: as above
c-Src SH2 = assay: as above
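Wherever SH2 binding enrichment of the phosphorylated peptide, bacterial display is given: peptide library displayed on the E. coli surface as eCPX fusions, selected cells deep-sequenced, score is each peptide's frequency after selection divided by its frequency in the input.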
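Wherever phosphorylation enrichment, bacterial display is given: 11-residue human phosphosite peptides and single-mutation variants displayed on the E. coli surface, counted by deep sequencing, each peptide's frequency after selection divided by its frequency in the unselected input library; frequency after pTyr selection over input frequency; kinase dosed for 20-30% of maximal phosphorylation in three min.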

MERTK, sequence (Q12866 whole entry, looked up): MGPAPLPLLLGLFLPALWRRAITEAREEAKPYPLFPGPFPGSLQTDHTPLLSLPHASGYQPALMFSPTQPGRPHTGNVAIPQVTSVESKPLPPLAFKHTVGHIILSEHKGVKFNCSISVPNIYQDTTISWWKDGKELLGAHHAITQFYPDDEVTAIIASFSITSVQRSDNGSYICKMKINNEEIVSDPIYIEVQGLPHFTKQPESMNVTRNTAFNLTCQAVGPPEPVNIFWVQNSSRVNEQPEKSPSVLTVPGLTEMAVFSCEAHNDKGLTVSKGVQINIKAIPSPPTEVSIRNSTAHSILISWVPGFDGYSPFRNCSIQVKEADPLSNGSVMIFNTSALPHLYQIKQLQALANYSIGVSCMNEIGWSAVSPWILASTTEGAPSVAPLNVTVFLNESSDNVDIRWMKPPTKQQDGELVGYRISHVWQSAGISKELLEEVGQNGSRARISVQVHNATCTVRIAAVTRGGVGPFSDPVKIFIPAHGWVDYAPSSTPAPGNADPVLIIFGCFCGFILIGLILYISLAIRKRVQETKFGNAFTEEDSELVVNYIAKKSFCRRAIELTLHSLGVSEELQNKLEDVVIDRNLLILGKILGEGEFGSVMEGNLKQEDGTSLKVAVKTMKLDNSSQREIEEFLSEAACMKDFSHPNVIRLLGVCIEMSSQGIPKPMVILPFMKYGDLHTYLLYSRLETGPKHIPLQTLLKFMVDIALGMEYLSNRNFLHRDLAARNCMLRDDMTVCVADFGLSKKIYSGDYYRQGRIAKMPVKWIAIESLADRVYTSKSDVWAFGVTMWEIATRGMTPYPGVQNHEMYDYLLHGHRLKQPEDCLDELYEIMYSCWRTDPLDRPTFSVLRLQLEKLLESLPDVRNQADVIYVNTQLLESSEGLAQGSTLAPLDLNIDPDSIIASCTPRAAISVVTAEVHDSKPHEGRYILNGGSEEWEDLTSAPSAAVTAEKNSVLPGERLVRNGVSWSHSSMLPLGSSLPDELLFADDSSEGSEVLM
EPHB2, sequence (P29323 whole entry, looked up): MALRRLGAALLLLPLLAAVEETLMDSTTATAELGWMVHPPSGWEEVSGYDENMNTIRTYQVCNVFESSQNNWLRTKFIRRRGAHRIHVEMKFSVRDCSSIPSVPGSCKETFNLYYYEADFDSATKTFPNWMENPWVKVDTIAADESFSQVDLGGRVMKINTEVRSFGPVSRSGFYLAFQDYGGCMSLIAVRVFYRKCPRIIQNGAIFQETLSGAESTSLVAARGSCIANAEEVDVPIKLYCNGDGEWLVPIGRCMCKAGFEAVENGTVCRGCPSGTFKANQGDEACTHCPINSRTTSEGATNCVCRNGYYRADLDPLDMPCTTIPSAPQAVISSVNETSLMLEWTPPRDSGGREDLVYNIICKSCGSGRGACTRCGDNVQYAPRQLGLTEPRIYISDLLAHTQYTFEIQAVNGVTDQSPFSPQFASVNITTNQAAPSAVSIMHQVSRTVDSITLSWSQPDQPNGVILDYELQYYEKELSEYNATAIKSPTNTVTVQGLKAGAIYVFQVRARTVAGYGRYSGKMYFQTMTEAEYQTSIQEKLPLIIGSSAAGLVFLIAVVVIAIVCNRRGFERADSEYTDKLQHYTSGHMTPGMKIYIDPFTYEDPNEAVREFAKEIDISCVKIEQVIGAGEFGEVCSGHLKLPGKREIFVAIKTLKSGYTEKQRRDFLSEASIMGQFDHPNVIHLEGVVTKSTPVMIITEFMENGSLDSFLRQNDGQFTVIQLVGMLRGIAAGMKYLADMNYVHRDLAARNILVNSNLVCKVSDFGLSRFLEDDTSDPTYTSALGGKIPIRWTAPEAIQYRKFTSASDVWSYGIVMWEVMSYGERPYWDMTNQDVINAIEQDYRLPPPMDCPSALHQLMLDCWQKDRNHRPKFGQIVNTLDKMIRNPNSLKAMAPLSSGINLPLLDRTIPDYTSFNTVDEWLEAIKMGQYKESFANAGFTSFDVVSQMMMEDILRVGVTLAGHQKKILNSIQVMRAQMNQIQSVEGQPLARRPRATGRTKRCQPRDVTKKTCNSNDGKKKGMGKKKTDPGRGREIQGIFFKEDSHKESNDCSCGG
Fes, sequence (P07332 whole entry, looked up): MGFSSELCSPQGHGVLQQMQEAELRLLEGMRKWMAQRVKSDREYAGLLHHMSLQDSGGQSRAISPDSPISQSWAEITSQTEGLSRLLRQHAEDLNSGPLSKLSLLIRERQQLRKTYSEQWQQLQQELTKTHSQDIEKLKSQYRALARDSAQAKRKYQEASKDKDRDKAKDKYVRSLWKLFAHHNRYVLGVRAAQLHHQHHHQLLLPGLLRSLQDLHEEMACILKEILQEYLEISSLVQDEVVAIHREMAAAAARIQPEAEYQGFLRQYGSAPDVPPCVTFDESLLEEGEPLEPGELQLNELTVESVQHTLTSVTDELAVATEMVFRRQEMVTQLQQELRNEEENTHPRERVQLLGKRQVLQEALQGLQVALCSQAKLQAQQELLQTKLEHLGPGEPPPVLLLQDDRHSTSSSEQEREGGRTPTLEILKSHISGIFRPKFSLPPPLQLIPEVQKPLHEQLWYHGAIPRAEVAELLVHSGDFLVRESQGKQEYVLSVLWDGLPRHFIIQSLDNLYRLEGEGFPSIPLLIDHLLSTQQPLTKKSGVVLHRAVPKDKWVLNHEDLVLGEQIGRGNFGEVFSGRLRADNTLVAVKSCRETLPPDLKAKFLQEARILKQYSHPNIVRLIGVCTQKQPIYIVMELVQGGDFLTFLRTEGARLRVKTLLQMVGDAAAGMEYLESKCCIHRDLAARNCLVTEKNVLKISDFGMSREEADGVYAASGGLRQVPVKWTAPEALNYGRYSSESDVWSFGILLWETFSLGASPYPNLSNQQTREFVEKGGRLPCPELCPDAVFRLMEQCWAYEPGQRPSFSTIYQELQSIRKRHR
EPHB1, sequence (P54762 whole entry, looked up): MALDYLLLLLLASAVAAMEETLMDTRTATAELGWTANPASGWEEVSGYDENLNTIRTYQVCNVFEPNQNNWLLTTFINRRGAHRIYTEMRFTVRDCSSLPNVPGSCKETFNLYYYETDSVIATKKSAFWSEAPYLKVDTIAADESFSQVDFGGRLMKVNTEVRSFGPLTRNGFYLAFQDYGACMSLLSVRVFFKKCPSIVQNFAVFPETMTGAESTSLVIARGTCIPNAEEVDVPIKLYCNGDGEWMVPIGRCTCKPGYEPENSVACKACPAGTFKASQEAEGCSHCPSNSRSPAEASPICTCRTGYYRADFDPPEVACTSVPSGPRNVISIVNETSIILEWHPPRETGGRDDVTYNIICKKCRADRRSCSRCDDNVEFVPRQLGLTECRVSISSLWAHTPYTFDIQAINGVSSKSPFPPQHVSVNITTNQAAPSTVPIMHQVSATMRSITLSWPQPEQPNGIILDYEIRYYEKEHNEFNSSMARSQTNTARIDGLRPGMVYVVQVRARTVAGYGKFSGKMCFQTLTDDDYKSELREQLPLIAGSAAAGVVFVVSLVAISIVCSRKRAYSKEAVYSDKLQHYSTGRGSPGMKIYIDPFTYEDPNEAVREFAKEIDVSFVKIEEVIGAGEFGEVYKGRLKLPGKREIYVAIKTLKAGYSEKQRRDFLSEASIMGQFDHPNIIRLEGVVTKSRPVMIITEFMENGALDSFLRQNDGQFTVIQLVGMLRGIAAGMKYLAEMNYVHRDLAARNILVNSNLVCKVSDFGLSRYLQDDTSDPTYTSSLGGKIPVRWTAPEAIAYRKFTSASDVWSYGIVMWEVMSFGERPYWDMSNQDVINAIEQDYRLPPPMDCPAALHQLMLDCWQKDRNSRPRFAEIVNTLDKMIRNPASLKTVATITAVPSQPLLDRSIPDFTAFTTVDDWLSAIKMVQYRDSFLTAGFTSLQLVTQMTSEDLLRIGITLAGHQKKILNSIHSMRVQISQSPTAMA
FGFR3, sequence (P22607 whole entry, looked up): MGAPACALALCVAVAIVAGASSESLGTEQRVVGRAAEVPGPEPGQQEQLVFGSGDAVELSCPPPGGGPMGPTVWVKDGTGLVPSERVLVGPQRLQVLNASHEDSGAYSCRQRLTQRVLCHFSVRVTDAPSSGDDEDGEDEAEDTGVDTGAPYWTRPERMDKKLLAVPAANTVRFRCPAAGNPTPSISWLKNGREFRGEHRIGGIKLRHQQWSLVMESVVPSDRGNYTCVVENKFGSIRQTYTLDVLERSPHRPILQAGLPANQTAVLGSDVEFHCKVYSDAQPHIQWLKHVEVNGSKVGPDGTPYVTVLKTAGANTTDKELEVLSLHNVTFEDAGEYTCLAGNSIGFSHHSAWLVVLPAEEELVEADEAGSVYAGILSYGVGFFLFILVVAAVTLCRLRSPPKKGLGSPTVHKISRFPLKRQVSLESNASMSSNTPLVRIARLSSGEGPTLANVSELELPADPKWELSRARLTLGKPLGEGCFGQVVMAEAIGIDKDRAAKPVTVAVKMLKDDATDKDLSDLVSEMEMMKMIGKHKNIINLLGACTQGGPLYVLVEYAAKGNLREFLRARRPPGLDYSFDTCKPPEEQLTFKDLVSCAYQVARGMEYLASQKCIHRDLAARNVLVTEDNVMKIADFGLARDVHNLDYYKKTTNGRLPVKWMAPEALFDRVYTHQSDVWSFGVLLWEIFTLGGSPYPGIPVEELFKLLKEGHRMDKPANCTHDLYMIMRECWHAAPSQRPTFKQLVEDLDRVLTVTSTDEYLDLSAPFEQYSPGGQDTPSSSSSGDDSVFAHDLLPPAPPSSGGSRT
Grb2 SH2, sequence (P62993 whole entry, looked up): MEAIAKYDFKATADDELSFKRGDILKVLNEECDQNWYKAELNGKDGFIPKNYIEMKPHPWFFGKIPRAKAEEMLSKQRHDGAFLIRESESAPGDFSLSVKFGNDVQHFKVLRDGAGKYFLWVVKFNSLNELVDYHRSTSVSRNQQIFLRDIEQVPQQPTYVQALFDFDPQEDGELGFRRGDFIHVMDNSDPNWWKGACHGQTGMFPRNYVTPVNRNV

| Sequence | phosphorylation enrichment (AncSZ) | phosphorylation enrichment (EPHB1) | phosphorylation enrichment (EPHB2) | phosphorylation enrichment (FGFR1) | phosphorylation enrichment (FGFR3) | phosphorylation enrichment (Fer (mouse)) | phosphorylation enrichment (Fes) | phosphorylation enrichment (Fyn) | phosphorylation enrichment (Hck) | phosphorylation enrichment (Jak2) | phosphorylation enrichment (MERTK) | phosphorylation enrichment (c-Abl (mouse)) | phosphorylation enrichment (c-Src) | SH2 binding enrichment (Grb2 SH2) | SH2 binding enrichment (SHP2-C SH2) | SH2 binding enrichment (c-Src SH2) |
| --- | --- | --- | --- | --- | --- | --- | --- | --- | --- | --- | --- | --- | --- | --- | --- | --- |
| SFGENYDNSKS [MAN1B1_Y60] | 0.766 | 0.434 | 0.461 | 0.452 | 0.548 | 0.444 | 0.958 | 0.438 | 0.408 | 0.89 | 0.567 | 0.833 | 0.464 | 0.765 | 0.571 | 0.75 |
| ESMQSYDLDFP [UNC13B_Y243_D238E_YF] | 0.909 | 0.459 | 0.5 | 0.568 | 0.63 | 0.506 | 1.04 | 0.51 | 0.46 | 0.777 | 0.441 | 0.538 | 0.49 | 0.824 | 0.534 | 0.648 |
| EQMASYFGHSV [ITGA2B_Y319] | 0.662 | 0.44 | 0.488 | 0.576 | 0.59 | 0.584 | 0.663 | 0.549 | 0.452 | 0.842 | 0.425 | 0.573 | 0.553 | 0.758 | 0.596 | 0.491 |
| VHHLVYHHHHH [CACNA1H_Y519] | 0.777 | 0.725 | 0.696 | 0.55 | 1.23 | 0.896 | 1.99 | 0.546 | 0.65 | 1.66 | 0.52 | 0.963 | 0.602 | 1.28 | 1.36 | 1.15 |
| HNVPICEGFAL [ACTC1_Y168_Y168C_YF] | 1.1 | 0.729 | 0.704 | 0.849 | 0.947 | 0.59 | 1.29 | 0.75 | 0.708 | 1.15 | 0.673 | 1.06 | 0.621 | 0.871 | 1.16 | 0.555 |
| VPVPGYTKLPE [SPRR3_Y146] | 0.865 | 0.544 | 0.642 | 0.531 | 0.671 | 0.473 | 1.05 | 0.464 | 0.487 | 0.848 | 0.499 | 0.988 | 0.419 | 0.635 | 0.445 | 0.458 |
| PESCLYKESWI [IQGAP2_Y630_L635I] | 1.18 | 0.931 | 1.2 | 1.25 | 1.17 | 1.26 | 1.97 | 0.493 | 0.872 | 1.54 | 0.6 | 1.48 | 0.825 | 0.827 | 0.315 | 0.532 |
| NTGGFYDLFGG [PTPN11_Y63_D61G_YF] | 1.05 | 0.829 | 0.899 | 0.478 | 0.719 | 3.82 | 1.18 | 7.59 | 5.68 | 1.1 | 9.2 | 0.836 | 4.17 | 1.09 | 0.784 | 0.677 |
| PQGVGYPQQQQ [EP300_Y2219_P2221Q] | 0.87 | 0.591 | 0.435 | 0.448 | 0.604 | 0.441 | 0.921 | 0.608 | 0.546 | 0.713 | 0.4 | 0.599 | 0.475 | 0.588 | 0.835 | 0.249 |
| RGESFYQDRMN [RARS_Y338] | 0.746 | 0.463 | 0.392 | 0.534 | 0.512 | 0.603 | 0.996 | 0.411 | 0.631 | 0.899 | 0.469 | 0.726 | 0.541 | 0.794 | 0.725 | 0.461 |
| IEEGTYGVAYR [CDK11B_Y449_V452A] | 1.24 | 0.686 | 2.44 | 0.494 | 0.635 | 5.71 | 1 | 7.54 | 5.91 | 0.928 | 2.22 | 0.836 | 5.77 | 0.681 | 0.662 | 0.471 |
| HFVFFYSFLLK [PTEN_Y178_R173H_YF] | 2.18 | 1.32 | 0.844 | 0.682 | 1.14 | 1.01 | 2.93 | 1.07 | 0.819 | 3.35 | 1.44 | 2.85 | 1.55 | 2.43 | 1.14 | 1.05 |
| GSPPPYRRRKR [MBD1_Y403] | 0.665 | 0.451 | 0.625 | 0.464 | 0.601 | 0.608 | 0.605 | 0.535 | 0.537 | 0.519 | 0.593 | 0.55 | 0.638 | 0.597 | 0.41 | 0.458 |
| KVKEQYQDVPM [PKP2_Y659] | 0.667 | 0.455 | 0.431 | 0.509 | 0.48 | 0.36 | 0.717 | 0.446 | 0.48 | 0.632 | 0.401 | 0.603 | 0.395 | 0.801 | 0.776 | 0.728 |
| VPDTNYTSDEE [STK33_Y439_A437T] | 1.23 | 0.562 | 0.658 | 0.606 | 0.708 | 0.511 | 1.19 | 0.56 | 0.552 | 1.07 | 0.437 | 0.748 | 0.465 | 1.23 | 0.811 | 0.675 |
